One assay deals with H1N1-PR8-NS1(RBD) (Influenza A virus A/Puerto …, UniProt P03496). The experiment in a line: ELISA. The settings on record: both partners purified.
Another assay has as its target H5N1-NS1-24mer (Influenza A virus …). The experiment in a line: ELISA. The conditions noted are these: both partners purified. (In general: In an ELISA, binding on a coated surface is turned into a signal by an enzyme label.)

Chain of H5N1-NS1-24mer (Influenza A virus …) (O57276 30-53): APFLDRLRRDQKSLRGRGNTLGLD
Chain of H1N1-PR8-NS1(RBD) (P03496 1-70): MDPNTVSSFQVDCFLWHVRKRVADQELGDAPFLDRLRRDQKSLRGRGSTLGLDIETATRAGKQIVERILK

B1: monoclonal antibody 2H6 (antibody, V domains shown)
VH: DVKLVESGGGLVNLGGSLKLSCAASGFTFSRYYMSWVRQTPEKRLELVAAINHNSGRTYYSDTVKGRFTISRDNAKNTLYLQMSSLKSEDTALYYCTRHPLIYHGNYLDYWGQGTTLTVSS
VL: DIVLTQSPASLAVSLGQRATISCKASQSVDYDGDSYVTWYQQKPGQPPKLLIYVASNLESGIPARFSGSGSGTDFTLNIHPVEEEDAATYYCQQSNEDPWTFGGGTKLEIK
As for B1, the binding result in the assay with H1N1-PR8-NS1(RBD) and with H5N1-NS1-24mer was “binds” throughout.

For the origin of these results see paper PMC5025888 (Scientific Reports, 2016).
